Data as given in publication PMC10418658, “Biochemical and Structural Insights into a Thiamine Diphosphate-Dependent α-Ketoglutarate Decarboxylase from Cyanobacterium Microcystis aeruginosa NIES-843” (International Journal of Molecular Sciences, 2023).

How the values were obtained:
Test in all cases: purified protein
[1] = substrate: Cc1ncc(C[n+]2csc(CCO[P@](=O)(O)OP(=O)(O)O)c2C)c(N)n1; details: half-saturation of activity, varied: cofactor
[2] = substrate: O=C(O)CCC(=O)C(=O)O; format: biochemical, Synechocystis sp. PCC 6803; details: saturated ThDP and Mg2+; purified from coexpression with pTf16
[3] = substrate: O=C(O)CCC(=O)C(=O)O; format: biochemical, Microcystis aeruginosa; details: 1 mM ThDP, 2 mM Mg2+, 100 mM HEPES pH 7.0, 10% glycerol, 25 °C
[4] = substrate: Cc1ncc(C[n+]2csc(CCO[P@](=O)(O)OP(=O)(O)O)c2C)c(N)n1; format: biochemical, Microcystis aeruginosa; details: 10 mM α-ketoglutarate, 2 mM Mg2+, 100 mM HEPES pH 7.0, 10% glycerol, 25 °C, varied: cofactor

Row | Protein | Km [3] | kcat [3] | K0.5 [4] | further results
1 | StKGD (Synechocystis sp. PCC 6803 substr. Kazusa) (protein, recombinant, coexpressed with chaperone plasmid pTf16 and purified again in this study) MGQMNTADLLVQCLENEDVEYIFGVPGEENLHILEALKNSPIRFITTRHEQGAAFMADVYGRLTGKAGVCLSTLGPGATNLMTGVADANLDGAPLVAITGQVGTDRMHIESHQYLDLVAMFDPVTKWTRQIVRPSITPEVVRKAFKLAQSEKPGATHIDLPENIAAMPVDGKPLRRDSREKVYAAFRTLGTAANAISKAKNPIILAGNGTIRAEASEALTEFATSLNIPVANTFMGKGTMPYTHPLSLWTVGLQQRDHITCAFEKSDLVIAVGYDLIEYSPKKWNPTGDLPIIHIGATPAEIDSSYIPQVEVVGDITDSLMDLLKRCDRQGKPTPYGASLRAEIRAEYECYANDTGFPVKPQKIIYDLRQVMGPDDVVISDVGAHKMWMARHYHCDSPNTCLISNGFAAMGIAIPGAIAAKLVYPERNIVAVTGDGGFMMNCQELETAMRVGTPFVTLIFNDNGYGLIEWKQINQFGESSFIKFGNPDFVKFAESMGLKGYRVEAAADLIPILKEALAQPVPTVIDCPVDYRENIRFSQKAGELACEIWE | – | – | – | K0.5 ([1]; purified from coexpression with pTf16): 0.063 ± 0.019 mM; Km [2]: 3.83 ± 0.75 mM; kcat [2]: 3.07 ± 0.42 s⁻¹; kcat/Km [2]: 800 M⁻¹ s⁻¹
2 | MaKGD (Microcystis aeruginosa NIES-843) (protein, full length, pET28a (NdeI/XhoI), E. coli BL21(DE3) with chaperone plasmid pTf16, imidazole-eluted; codon-optimised gene) MGELNTAELLVKCLENEGVEYIFGLPGEENLDVLEALKNSSIKFITTRHEQGAAFMADVYGRLTGKAGVCLSTLGPGATNLMTGVADANLDGAPLVAITGQVGTDRMHIESHQYLDLVAMFAPVTKWNKQIVRPGITPEVVRRAFKTAQSEKPGAVHIDLPENIAAMAADGHPLPLDSQEKVYASYRTLNMAAAVISKAKNPLILAGNGAIRANASEALTEFATALNIPVANTFMGKGVIPYTHPLALWAVGLQQRDLISCAFERSDLIIAVGYDLIEYSPKKWNPDGKLPIIHIGMTPAEIDSSYAPVVEVVGDITDSLIDILKRADRQNKPTPVTAGLKTEIRADYETYANDTGFPIKPQKLIYDLRQVMGPEDIAICDVGAHKMWMARQYHSDCPNTCIISNGFAAMGIAIPGAIAAKLVYPNKRIVAVTGDGGFMMNCQELETALRVGTPFVTLIFNDGGYGLIEWKQLNYFGTSSFIKFGNPDFVKFAESMGLKGYRVESTQDLIPTLEEAFRQEVPTVIDVPVDYGENLRLSQKSGDLSCQIWE | 0.87 ± 0.23 mM | 7.8 ± 0.5 s⁻¹ | – | kcat/Km [3]: 8970 M⁻¹ s⁻¹; K0.5 ([1]; 10 mM α-ketoglutarate, 2 mM Mg2+, 100 mM HEPES pH 7.0, 10% glycerol, 25 °C, pH 7.0, 25.0 °C): 0.0056 ± 0.0007 mM
3 | MiKGD (Microcystis aeruginosa NIES-4325) (protein, full length, pET28a (NdeI/XhoI), E. coli BL21(DE3) with chaperone plasmid pTf16; codon-optimised gene) MGELNTAELLVKCLENEGVEYIFGLPGEENLDVLEALKNSSIKFITTRHEQGAAFMADVYGRLTGKAGVCLSTLGPGATNLMTGVADANLDGAPLVAITGQVGTDRMHIESHQYLDLVAMFAPVTKWNKQIVRPGITPEVVRRAFKTAQSEKPGAVHIDLPENIAAMPADGHPLPLDSQEKVYASYRTLNMAAAVISKAKNPLILAGNGAIRANASEALTEFATALNIPVANTFMGKGVIPYTHPLALWAVGLQQRDLISCAFDRSDLIIAVGYDLIEYSPKKWNPEGKLPIIHIGMTPAEIDSSYAPVVEVVGDITDSLIDILKRADRQNKPTPVTAGLKTEIRADYETYANDTGFPIKPQKLIYDLRQVMGPEDIVISDVGAHKMWMARQYHSDCPNTCIISNGFAAMGIAIPGAIAAKLVHPDKRVVAVTGDGGFMMNCQELETALRVGTPFVTLIFNDGGYGLIEWKQFNYFGTSSFIKFGNPDFVKFAESMGLKGYRVESAQDLIPILEEAFQQEVPTVIDVPVDYGENLRLSQKSGDLSCQIWE | 4.47 ± 0.63 mM | 4.33 ± 0.37 s⁻¹ | – | K0.5 ([4]; half-saturation of activity): 0.026 ± 0.006 mM; kcat/Km [3]: 970 M⁻¹ s⁻¹
4 | MaKGD (Microcystis aeruginosa NIES-843; D462E) (protein, full length, pET28a (NdeI/XhoI), E. coli BL21(DE3) with chaperone plasmid pTf16, imidazole-eluted; codon-optimised gene) MGELNTAELLVKCLENEGVEYIFGLPGEENLDVLEALKNSSIKFITTRHEQGAAFMADVYGRLTGKAGVCLSTLGPGATNLMTGVADANLDGAPLVAITGQVGTDRMHIESHQYLDLVAMFAPVTKWNKQIVRPGITPEVVRRAFKTAQSEKPGAVHIDLPENIAAMAADGHPLPLDSQEKVYASYRTLNMAAAVISKAKNPLILAGNGAIRANASEALTEFATALNIPVANTFMGKGVIPYTHPLALWAVGLQQRDLISCAFERSDLIIAVGYDLIEYSPKKWNPDGKLPIIHIGMTPAEIDSSYAPVVEVVGDITDSLIDILKRADRQNKPTPVTAGLKTEIRADYETYANDTGFPIKPQKLIYDLRQVMGPEDIAICDVGAHKMWMARQYHSDCPNTCIISNGFAAMGIAIPGAIAAKLVYPNKRIVAVTGDGGFMMNCQELETALRVGTPFVTLIFNEGGYGLIEWKQLNYFGTSSFIKFGNPDFVKFAESMGLKGYRVESTQDLIPTLEEAFRQEVPTVIDVPVDYGENLRLSQKSGDLSCQIWE | 2.38 ± 0.63 mM | 9 ± 0.47 s⁻¹ | 0.761 ± 0.143 mM | –
5 | MaKGD (Microcystis aeruginosa NIES-843; D462N) (protein, full length, pET28a (NdeI/XhoI), E. coli BL21(DE3) with chaperone plasmid pTf16, imidazole-eluted; codon-optimised gene) MGELNTAELLVKCLENEGVEYIFGLPGEENLDVLEALKNSSIKFITTRHEQGAAFMADVYGRLTGKAGVCLSTLGPGATNLMTGVADANLDGAPLVAITGQVGTDRMHIESHQYLDLVAMFAPVTKWNKQIVRPGITPEVVRRAFKTAQSEKPGAVHIDLPENIAAMAADGHPLPLDSQEKVYASYRTLNMAAAVISKAKNPLILAGNGAIRANASEALTEFATALNIPVANTFMGKGVIPYTHPLALWAVGLQQRDLISCAFERSDLIIAVGYDLIEYSPKKWNPDGKLPIIHIGMTPAEIDSSYAPVVEVVGDITDSLIDILKRADRQNKPTPVTAGLKTEIRADYETYANDTGFPIKPQKLIYDLRQVMGPEDIAICDVGAHKMWMARQYHSDCPNTCIISNGFAAMGIAIPGAIAAKLVYPNKRIVAVTGDGGFMMNCQELETALRVGTPFVTLIFNNGGYGLIEWKQLNYFGTSSFIKFGNPDFVKFAESMGLKGYRVESTQDLIPTLEEAFRQEVPTVIDVPVDYGENLRLSQKSGDLSCQIWE | 3.92 ± 0.45 mM | 1.5 ± 0.36 s⁻¹ | 0.008 ± 0.001 mM | –
6 | MaKGD (Microcystis aeruginosa NIES-843; M410A) (protein, full length, pET28a (NdeI/XhoI), E. coli BL21(DE3) with chaperone plasmid pTf16, imidazole-eluted; codon-optimised gene) MGELNTAELLVKCLENEGVEYIFGLPGEENLDVLEALKNSSIKFITTRHEQGAAFMADVYGRLTGKAGVCLSTLGPGATNLMTGVADANLDGAPLVAITGQVGTDRMHIESHQYLDLVAMFAPVTKWNKQIVRPGITPEVVRRAFKTAQSEKPGAVHIDLPENIAAMAADGHPLPLDSQEKVYASYRTLNMAAAVISKAKNPLILAGNGAIRANASEALTEFATALNIPVANTFMGKGVIPYTHPLALWAVGLQQRDLISCAFERSDLIIAVGYDLIEYSPKKWNPDGKLPIIHIGMTPAEIDSSYAPVVEVVGDITDSLIDILKRADRQNKPTPVTAGLKTEIRADYETYANDTGFPIKPQKLIYDLRQVMGPEDIAICDVGAHKMWMARQYHSDCPNTCIISNGFAAAGIAIPGAIAAKLVYPNKRIVAVTGDGGFMMNCQELETALRVGTPFVTLIFNDGGYGLIEWKQLNYFGTSSFIKFGNPDFVKFAESMGLKGYRVESTQDLIPTLEEAFRQEVPTVIDVPVDYGENLRLSQKSGDLSCQIWE | – | – | 0.046 ± 0.010 mM | –
7 | MaKGD (Microcystis aeruginosa NIES-843; L467A) (protein, full length, pET28a (NdeI/XhoI), E. coli BL21(DE3) with chaperone plasmid pTf16, imidazole-eluted; codon-optimised gene) MGELNTAELLVKCLENEGVEYIFGLPGEENLDVLEALKNSSIKFITTRHEQGAAFMADVYGRLTGKAGVCLSTLGPGATNLMTGVADANLDGAPLVAITGQVGTDRMHIESHQYLDLVAMFAPVTKWNKQIVRPGITPEVVRRAFKTAQSEKPGAVHIDLPENIAAMAADGHPLPLDSQEKVYASYRTLNMAAAVISKAKNPLILAGNGAIRANASEALTEFATALNIPVANTFMGKGVIPYTHPLALWAVGLQQRDLISCAFERSDLIIAVGYDLIEYSPKKWNPDGKLPIIHIGMTPAEIDSSYAPVVEVVGDITDSLIDILKRADRQNKPTPVTAGLKTEIRADYETYANDTGFPIKPQKLIYDLRQVMGPEDIAICDVGAHKMWMARQYHSDCPNTCIISNGFAAMGIAIPGAIAAKLVYPNKRIVAVTGDGGFMMNCQELETALRVGTPFVTLIFNDGGYGAIEWKQLNYFGTSSFIKFGNPDFVKFAESMGLKGYRVESTQDLIPTLEEAFRQEVPTVIDVPVDYGENLRLSQKSGDLSCQIWE | 1.22 ± 0.51 mM | 2.7 ± 0.32 s⁻¹ | 0.026 ± 0.004 mM | –
8 | MaKGD (Microcystis aeruginosa NIES-843; Y465A) (protein, full length, pET28a (NdeI/XhoI), E. coli BL21(DE3) with chaperone plasmid pTf16, imidazole-eluted; codon-optimised gene) MGELNTAELLVKCLENEGVEYIFGLPGEENLDVLEALKNSSIKFITTRHEQGAAFMADVYGRLTGKAGVCLSTLGPGATNLMTGVADANLDGAPLVAITGQVGTDRMHIESHQYLDLVAMFAPVTKWNKQIVRPGITPEVVRRAFKTAQSEKPGAVHIDLPENIAAMAADGHPLPLDSQEKVYASYRTLNMAAAVISKAKNPLILAGNGAIRANASEALTEFATALNIPVANTFMGKGVIPYTHPLALWAVGLQQRDLISCAFERSDLIIAVGYDLIEYSPKKWNPDGKLPIIHIGMTPAEIDSSYAPVVEVVGDITDSLIDILKRADRQNKPTPVTAGLKTEIRADYETYANDTGFPIKPQKLIYDLRQVMGPEDIAICDVGAHKMWMARQYHSDCPNTCIISNGFAAMGIAIPGAIAAKLVYPNKRIVAVTGDGGFMMNCQELETALRVGTPFVTLIFNDGGAGLIEWKQLNYFGTSSFIKFGNPDFVKFAESMGLKGYRVESTQDLIPTLEEAFRQEVPTVIDVPVDYGENLRLSQKSGDLSCQIWE | 1.48 ± 0.27 mM | 1.23 ± 0.25 s⁻¹ | 0.090 ± 0.021 mM | –
9 | MaKGD (Microcystis aeruginosa NIES-843; D435E) (protein, full length, pET28a (NdeI/XhoI), E. coli BL21(DE3) with chaperone plasmid pTf16, imidazole-eluted; codon-optimised gene) MGELNTAELLVKCLENEGVEYIFGLPGEENLDVLEALKNSSIKFITTRHEQGAAFMADVYGRLTGKAGVCLSTLGPGATNLMTGVADANLDGAPLVAITGQVGTDRMHIESHQYLDLVAMFAPVTKWNKQIVRPGITPEVVRRAFKTAQSEKPGAVHIDLPENIAAMAADGHPLPLDSQEKVYASYRTLNMAAAVISKAKNPLILAGNGAIRANASEALTEFATALNIPVANTFMGKGVIPYTHPLALWAVGLQQRDLISCAFERSDLIIAVGYDLIEYSPKKWNPDGKLPIIHIGMTPAEIDSSYAPVVEVVGDITDSLIDILKRADRQNKPTPVTAGLKTEIRADYETYANDTGFPIKPQKLIYDLRQVMGPEDIAICDVGAHKMWMARQYHSDCPNTCIISNGFAAMGIAIPGAIAAKLVYPNKRIVAVTGEGGFMMNCQELETALRVGTPFVTLIFNDGGYGLIEWKQLNYFGTSSFIKFGNPDFVKFAESMGLKGYRVESTQDLIPTLEEAFRQEVPTVIDVPVDYGENLRLSQKSGDLSCQIWE | – | – | 0.041 ± 0.003 mM | –
